Key:
cMet-Fc fusion protein = cMet-Fc fusion protein (Homo sapiens, UniProt P08581); experiment: Protein phage ELISA: peptide-displaying phage binding to soluble cMet-Fc versus TRAIL-Fc; settings: phage isolate; cMet-Fc vs. TRAIL-Fc
Summary of the method: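 Phage displaying selected peptides were incubated 2 h at room temperature on wells coated with 0.5 μg/mL cMet-Fc, with TRAIL-Fc coating as the unrelated-Fc specificity control.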

[1] = biological target: T1, 3T3 cells that over-express human cMet (Homo sapiens, UniProt P08581); experiment: Whole cell ELISA of peptide-displaying phage; type: cell-based; settings: phage isolate; 3T3 cells expressing human cMet vs. non-expressing 3T3 cells
T1 construct: expressed in transfected cells; host or cells: 3T3 cells
Summary of the method: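 Phage displaying peptides, pre-blocked 1 h at 37 °C, incubated 1 h at RT on glutaraldehyde-fixed (0.1%, 12 min, 37 °C) cMet-overexpressing 3T3 cells (10^5 per well). Binding read out by HRP anti-M13 antibody after PBST washing.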

T1 sequence (P08581 25-1390): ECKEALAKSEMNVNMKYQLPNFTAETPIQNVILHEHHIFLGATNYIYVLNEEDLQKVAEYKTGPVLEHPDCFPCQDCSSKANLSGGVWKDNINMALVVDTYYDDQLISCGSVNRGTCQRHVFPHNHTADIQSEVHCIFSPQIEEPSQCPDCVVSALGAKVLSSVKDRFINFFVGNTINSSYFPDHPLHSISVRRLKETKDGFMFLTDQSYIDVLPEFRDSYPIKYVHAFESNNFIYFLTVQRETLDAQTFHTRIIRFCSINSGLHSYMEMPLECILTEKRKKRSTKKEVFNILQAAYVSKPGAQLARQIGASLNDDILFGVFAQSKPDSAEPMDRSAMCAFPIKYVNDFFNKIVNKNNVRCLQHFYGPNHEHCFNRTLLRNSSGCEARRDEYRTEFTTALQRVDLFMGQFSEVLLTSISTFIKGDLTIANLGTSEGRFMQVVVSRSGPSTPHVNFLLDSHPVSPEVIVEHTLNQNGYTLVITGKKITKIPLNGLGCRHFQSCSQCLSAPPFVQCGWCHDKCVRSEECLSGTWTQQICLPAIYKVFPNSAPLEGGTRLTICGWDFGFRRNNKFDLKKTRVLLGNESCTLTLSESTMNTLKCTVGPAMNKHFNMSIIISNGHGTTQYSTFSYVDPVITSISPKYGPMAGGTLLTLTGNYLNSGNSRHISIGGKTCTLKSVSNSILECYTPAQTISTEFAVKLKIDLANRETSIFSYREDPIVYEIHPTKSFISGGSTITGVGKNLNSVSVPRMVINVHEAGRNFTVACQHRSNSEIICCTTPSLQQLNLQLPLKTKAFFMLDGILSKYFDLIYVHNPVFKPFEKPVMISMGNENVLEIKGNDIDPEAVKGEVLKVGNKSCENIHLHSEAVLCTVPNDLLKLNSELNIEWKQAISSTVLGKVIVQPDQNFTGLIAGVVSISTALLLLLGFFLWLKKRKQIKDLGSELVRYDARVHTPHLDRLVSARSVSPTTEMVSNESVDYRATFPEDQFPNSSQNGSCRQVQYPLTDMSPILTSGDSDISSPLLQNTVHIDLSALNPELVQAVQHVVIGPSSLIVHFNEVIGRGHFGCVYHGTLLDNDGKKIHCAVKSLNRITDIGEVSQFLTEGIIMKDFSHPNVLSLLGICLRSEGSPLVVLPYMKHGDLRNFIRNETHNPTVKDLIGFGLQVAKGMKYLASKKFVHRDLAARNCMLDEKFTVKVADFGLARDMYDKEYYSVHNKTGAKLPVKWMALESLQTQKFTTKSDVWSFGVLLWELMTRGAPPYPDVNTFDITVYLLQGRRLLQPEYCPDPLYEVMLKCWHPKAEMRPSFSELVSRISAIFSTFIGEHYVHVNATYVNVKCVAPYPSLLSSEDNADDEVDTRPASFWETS
Sequence of cMet-Fc fusion protein (P08581 25-307 limits assumed): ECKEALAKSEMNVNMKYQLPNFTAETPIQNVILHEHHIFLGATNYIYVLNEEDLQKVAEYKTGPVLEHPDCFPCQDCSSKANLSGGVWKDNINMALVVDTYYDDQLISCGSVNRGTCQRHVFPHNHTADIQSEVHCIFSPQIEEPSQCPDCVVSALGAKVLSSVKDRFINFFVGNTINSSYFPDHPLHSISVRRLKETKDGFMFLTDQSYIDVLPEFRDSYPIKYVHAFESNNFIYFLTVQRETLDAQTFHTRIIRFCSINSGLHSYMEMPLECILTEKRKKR
Sequence of cMet-Fc fusion protein (P08581 with tags, fused parts or gaps limits assumed): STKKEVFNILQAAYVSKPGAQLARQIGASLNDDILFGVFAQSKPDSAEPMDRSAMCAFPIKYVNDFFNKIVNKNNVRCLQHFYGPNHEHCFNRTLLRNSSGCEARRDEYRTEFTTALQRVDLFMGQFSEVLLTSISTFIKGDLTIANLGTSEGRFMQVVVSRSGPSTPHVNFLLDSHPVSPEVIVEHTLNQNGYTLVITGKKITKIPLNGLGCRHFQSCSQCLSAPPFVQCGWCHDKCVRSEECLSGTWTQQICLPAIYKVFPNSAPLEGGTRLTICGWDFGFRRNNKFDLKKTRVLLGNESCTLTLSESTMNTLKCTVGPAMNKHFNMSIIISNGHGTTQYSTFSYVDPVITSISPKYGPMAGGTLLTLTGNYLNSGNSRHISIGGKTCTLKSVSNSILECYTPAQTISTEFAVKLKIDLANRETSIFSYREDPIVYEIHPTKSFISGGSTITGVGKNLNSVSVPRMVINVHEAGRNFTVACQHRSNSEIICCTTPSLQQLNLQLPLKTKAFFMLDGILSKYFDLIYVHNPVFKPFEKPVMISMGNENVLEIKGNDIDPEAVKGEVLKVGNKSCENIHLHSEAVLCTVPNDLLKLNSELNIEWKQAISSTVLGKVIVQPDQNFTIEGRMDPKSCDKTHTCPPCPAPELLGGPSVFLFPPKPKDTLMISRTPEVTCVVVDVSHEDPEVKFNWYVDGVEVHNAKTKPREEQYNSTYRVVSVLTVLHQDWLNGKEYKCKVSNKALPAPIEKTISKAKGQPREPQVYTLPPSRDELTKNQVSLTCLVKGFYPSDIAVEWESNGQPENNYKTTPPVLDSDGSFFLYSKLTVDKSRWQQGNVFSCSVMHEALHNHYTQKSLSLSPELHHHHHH

Compound	Protein ELISA (cMet-Fc fusion protein)	WC ELISA [1]
CC[C@H](C)[C@H](NC(=O)[C@H](CC(C)C)NC(=O)[C@H](CCCCN)NC(=O)[C@H](CCC(=O)O)NC(=O)[C@@H](NC(=O)[C@@H](NC(=O)[C@@H](NC(=O)[C@H](C)NC(=O)[C@H](CO)NC(=O)[C@H](CC(C)C)NC(=O)[C@H](Cc1c[nH]c2ccccc12)NC(=O)[C@H](CC(=O)O)NC(=O)[C@@H]1CCCN1C(=O)[C@@H](NC(=O)[C@H](CCC(N)=O)NC(=O)[C@H](C)NC(C)=O)C(C)C)C(C)C)C(C)C)[C@@H](C)CC)C(=O)N[C@@H](CCC(=O)O)C(=O)N[C@@H](Cc1ccc(O)cc1)C(=O)NCC(=O)N[C@@H](CCSC)C(=O)N[C@@H](CCSC)C(=O)N[C@H](C(=O)NCC(=O)NCC(=O)NCC(=O)N[C@@H](CCCCNC(=O)c1ccc2c(c1)C(=O)OC21c2ccc(O)cc2Oc2cc(O)ccc21)C(N)=O)C(C)C [SEQ ID NO: 464]	4.4 fold over background	1.37 fold over background
CC[C@H](C)[C@H](NC(=O)[C@H](CC(=O)O)NC(=O)[C@H](Cc1ccccc1)NC(=O)[C@H](Cc1ccccc1)NC(=O)[C@H](CCC(=O)O)NC(=O)[C@H](Cc1c[nH]c2ccccc12)NC(=O)[C@@H](NC(=O)[C@H](CCC(=O)O)NC(=O)[C@H](CCCCN)NC(=O)[C@H](CCC(N)=O)NC(=O)[C@H](C)NC(C)=O)[C@@H](C)O)C(=O)N[C@H](C(=O)N[C@@H](Cc1ccc(O)cc1)C(=O)NCC(=O)N[C@@H](CO)C(=O)NCC(=O)N[C@@H](Cc1c[nH]c2ccccc12)C(=O)N[C@@H](CCCCN)C(=O)N[C@@H](Cc1ccccc1)C(=O)N[C@@H](CC(N)=O)C(=O)N[C@@H](CO)C(=O)N1CCC[C@H]1C(=O)NCC(=O)NCC(=O)NCC(=O)N[C@@H](CCCCNC(=O)c1ccc2c(c1)C(=O)OC21c2ccc(O)cc2Oc2cc(O)ccc21)C(N)=O)C(C)C [SEQ ID NO: 466]	4.0 fold over background	1.23 fold over background
ADAWMCEYFQWNCGDKGT (Synthetically generated cMet-binding peptide sequence) [SEQ ID NO: 046]	4.5 fold over background	1.33 fold over background
AGAFFCSGPPTFMCSLYGT (Synthetically generated cMet-binding peptide sequence) [SEQ ID NO: 098]	6.2 fold over background	1.27 fold over background
AGAWNCEYPTFICEWQGA (Synthetically generated cMet-binding peptide sequence) [SEQ ID NO: 012]	4.5 fold over background	1.27 fold over background
AGDFICQGPPSFVCTNIGT (Synthetically generated cMet-binding peptide sequence) [SEQ ID NO: 097]	8.4 fold over background	1.27 fold over background
AGDGWCMAWPEICEWLGT (Synthetically generated cMet-binding peptide sequence) [SEQ ID NO: 014]	4.8 fold over background	1.33 fold over background
AGDHYCWEEWWFCWDSGT (Synthetically generated cMet-binding peptide sequence) [SEQ ID NO: 021]	3.5 fold over background	1.37 fold over background
AGDWHCQGPPAFMCWMIGT (Synthetically generated cMet-binding peptide sequence) [SEQ ID NO: 065]	4.7 fold over background	1.30 fold over background
AGDWICHGPPMFECEWVGT (Synthetically generated cMet-binding peptide sequence) [SEQ ID NO: 058]	15.9 fold over background	1.17 fold over background
AGEIFCVGPPTFTCMWTGT (Synthetically generated cMet-binding peptide sequence) [SEQ ID NO: 096]	9.7 fold over background	1.27 fold over background
AGETFCSGWPTFECMQWGT (Synthetically generated cMet-binding peptide sequence) [SEQ ID NO: 095]	16.2 fold over background	1.23 fold over background

More lines, now with the values ahead:

Protein ELISA (cMet-Fc fusion protein)	WC ELISA [1]	Compound
3.9 fold over background	1.30 fold over background	CSCC[C@H](NC(=O)[C@H](Cc1ccccc1)NC(=O)[C@H](CCC(N)=O)NC(=O)[C@@H](NC(=O)[C@@H]1CCCN1C(=O)[C@H](CCSC)NC(=O)[C@H](Cc1c[nH]c2ccccc12)NC(=O)[C@@H](NC(=O)[C@H](CC(=O)O)NC(=O)[C@H](CCSC)NC(=O)[C@H](CCC(N)=O)NC(=O)[C@H](CCCNC(=N)N)NC(=O)[C@H](CCC(N)=O)NC(=O)[C@@H](NC(=O)[C@H](CO)NC(=O)[C@H](Cc1c[nH]cn1)NC(=O)[C@H](CCC(N)=O)NC(=O)[C@H](C)NC(C)=O)C(C)C)C(C)C)C(C)C)C(=O)N[C@@H](C)C(=O)NCC(=O)N[C@@H](Cc1ccccc1)C(=O)N[C@H](C(=O)NCC(=O)NCC(=O)NCC(=O)N[C@@H](CCCCNC(=O)c1ccc2c(c1)C(=O)OC21c2ccc(O)cc2Oc2cc(O)ccc21)C(N)=O)[C@@H](C)O [SEQ ID NO: 467]
3.8 fold over background	1.20 fold over background	CC[C@H](C)[C@H](NC(=O)[C@H](C)NC(=O)[C@@H](NC(=O)[C@H](Cc1ccccc1)NC(=O)[C@H](Cc1ccccc1)NC(=O)[C@H](CC(N)=O)NC(=O)[C@H](CCCNC(=N)N)NC(=O)[C@@H](NC(=O)[C@H](Cc1c[nH]cn1)NC(=O)[C@H](CC(=O)O)NC(=O)[C@@H](NC(=O)[C@H](Cc1c[nH]c2ccccc12)NC(=O)[C@H](CC(C)C)NC(=O)[C@H](CCC(=O)O)NC(=O)[C@H](Cc1ccccc1)NC(=O)CNC(=O)[C@H](CCC(N)=O)NC(=O)[C@H](C)NC(C)=O)C(C)C)[C@@H](C)O)[C@@H](C)CC)C(=O)N[C@@H](CO)C(=O)N1CCC[C@H]1C(=O)NCC(=O)NCC(=O)NCC(=O)N[C@@H](CCCCNC(=O)c1ccc2c(c1)C(=O)OC21c2ccc(O)cc2Oc2cc(O)ccc21)C(N)=O [SEQ ID NO: 469]
3.7 fold over background	1.80 fold over background	CC[C@H](C)[C@H](NC(=O)CNC(=O)[C@H](Cc1ccccc1)NC(=O)[C@H](Cc1c[nH]c2ccccc12)NC(=O)[C@H](CO)NC(=O)CNC(=O)[C@H](Cc1c[nH]c2ccccc12)NC(=O)[C@H](Cc1ccccc1)NC(=O)CNC(=O)[C@H](CC(=O)O)NC(=O)[C@@H](NC(=O)[C@H](Cc1ccccc1)NC(=O)[C@H](Cc1ccc(O)cc1)NC(=O)[C@H](CCC(=O)O)NC(=O)[C@H](CCCNC(=N)N)NC(=O)[C@H](CCC(=O)O)NC(=O)[C@H](Cc1c[nH]c2ccccc12)NC(=O)[C@H](CCC(=O)O)NC(=O)[C@H](CCC(N)=O)NC(=O)[C@H](C)NC(C)=O)C(C)C)C(=O)N1CCC[C@H]1C(=O)N[C@@H](Cc1c[nH]cn1)C(=O)NCC(=O)NCC(=O)NCC(=O)N[C@@H](CCCCNC(=O)c1ccc2c(c1)C(=O)OC21c2ccc(O)cc2Oc2cc(O)ccc21)C(N)=O [SEQ ID NO: 472]
3.5 fold over background	1.30 fold over background	CC(=O)N[C@@H](C)C(=O)N[C@@H](CCC(N)=O)C(=O)N[C@@H](Cc1c[nH]cn1)C(=O)N[C@@H](Cc1c[nH]c2ccccc12)C(=O)N[C@@H](CC(=O)O)C(=O)N[C@@H](Cc1ccc(O)cc1)C(=O)N[C@@H](CC(=O)O)C(=O)N[C@@H](CO)C(=O)NCC(=O)N[C@@H](CO)C(=O)N[C@@H](CC(=O)O)C(=O)N[C@@H](Cc1ccccc1)C(=O)N[C@@H](Cc1c[nH]c2ccccc12)C(=O)N[C@@H](Cc1ccccc1)C(=O)N1CCC[C@H]1C(=O)N[C@H](C(=O)N[C@@H](Cc1ccccc1)C(=O)N[C@@H](Cc1ccccc1)C(=O)N[C@@H](CC(C)C)C(=O)N[C@@H](CCC(=O)O)C(=O)N[C@@H](Cc1c[nH]cn1)C(=O)N[C@@H](Cc1c[nH]cn1)C(=O)NCC(=O)NCC(=O)NCC(=O)N[C@@H](CCCCNC(=O)c1ccc2c(c1)C(=O)OC21c2ccc(O)cc2Oc2cc(O)ccc21)C(N)=O)C(C)C [SEQ ID NO: 475]
3.3 fold over background	1.37 fold over background	CC[C@H](C)[C@H](NC(=O)[C@@H](NC(=O)[C@H](CCC(=O)O)NC(=O)CNC(=O)[C@H](Cc1c[nH]c2ccccc12)NC(=O)[C@H](Cc1c[nH]cn1)NC(=O)[C@@H](NC(=O)[C@H](CC(C)C)NC(=O)CNC(=O)[C@H](CC(=O)O)NC(=O)[C@H](Cc1c[nH]cn1)NC(=O)[C@@H]1CCCN1C(=O)[C@H](Cc1c[nH]c2ccccc12)NC(=O)[C@H](CCC(N)=O)NC(=O)[C@H](C)NC(C)=O)C(C)C)C(C)C)C(=O)N[C@@H](CCSC)C(=O)N[C@@H](CC(C)C)C(=O)N[C@@H](CCCNC(=N)N)C(=O)N[C@@H](Cc1ccccc1)C(=O)NCC(=O)NCC(=O)NCC(=O)N[C@@H](CCCCNC(=O)c1ccc2c(c1)C(=O)OC21c2ccc(O)cc2Oc2cc(O)ccc21)C(N)=O [SEQ ID NO: 479]
3.2 fold over background	1.53 fold over background	CC[C@H](C)[C@H](NC(=O)[C@@H](NC(=O)[C@H](CCC(=O)O)NC(=O)[C@H](Cc1c[nH]cn1)NC(=O)[C@@H](NC(=O)[C@H](C)NC(=O)[C@@H]1CCCN1C(=O)[C@H](CC(N)=O)NC(=O)[C@H](Cc1ccccc1)NC(=O)[C@H](CCCCN)NC(=O)[C@H](Cc1ccccc1)NC(=O)[C@H](Cc1c[nH]cn1)NC(=O)[C@@H](NC(=O)[C@@H](NC(=O)[C@H](C)NC(=O)[C@H](CCSC)NC(=O)[C@H](CC(=O)O)NC(=O)[C@H](CCC(=O)O)NC(=O)[C@@H](NC(=O)[C@H](CCC(N)=O)NC(=O)[C@H](C)NC(C)=O)C(C)C)[C@@H](C)O)C(C)C)[C@@H](C)O)C(C)C)C(=O)N[C@@H](Cc1c[nH]c2ccccc12)C(=O)NCC(=O)NCC(=O)NCC(=O)N[C@@H](CCCCNC(=O)c1ccc2c(c1)C(=O)OC21c2ccc(O)cc2Oc2cc(O)ccc21)C(N)=O [SEQ ID NO: 492]

Source: patent US9845340B2, “Peptides that specifically bind HGF receptor (cMet) and uses thereof” (Dyax Corp., priority 2003, dated 2017)
